Consider 1 molecule from publication PMC3114845, “Bordetella pertussis Autotransporter Vag8 Binds Human C1 Esterase Inhibitor and Confers Serum Resistance” (PLoS ONE, 2011).

This assay deals with T1, histidine-tagged Vag8 passenger domain (residues Val40 to Leu610) (Bordetella pertussis, UniProt Q79GN7 40-610).
T1 construct: autotransporter Vag8, Bordetella pertussis BP338 (Tohama I derivative), predicted passenger domain, residues Val40 to Leu610; Cloned with BamHI and HindIII into pET30b; also called purified Vag8 passenger; recombinant Vag8
T1 sequence: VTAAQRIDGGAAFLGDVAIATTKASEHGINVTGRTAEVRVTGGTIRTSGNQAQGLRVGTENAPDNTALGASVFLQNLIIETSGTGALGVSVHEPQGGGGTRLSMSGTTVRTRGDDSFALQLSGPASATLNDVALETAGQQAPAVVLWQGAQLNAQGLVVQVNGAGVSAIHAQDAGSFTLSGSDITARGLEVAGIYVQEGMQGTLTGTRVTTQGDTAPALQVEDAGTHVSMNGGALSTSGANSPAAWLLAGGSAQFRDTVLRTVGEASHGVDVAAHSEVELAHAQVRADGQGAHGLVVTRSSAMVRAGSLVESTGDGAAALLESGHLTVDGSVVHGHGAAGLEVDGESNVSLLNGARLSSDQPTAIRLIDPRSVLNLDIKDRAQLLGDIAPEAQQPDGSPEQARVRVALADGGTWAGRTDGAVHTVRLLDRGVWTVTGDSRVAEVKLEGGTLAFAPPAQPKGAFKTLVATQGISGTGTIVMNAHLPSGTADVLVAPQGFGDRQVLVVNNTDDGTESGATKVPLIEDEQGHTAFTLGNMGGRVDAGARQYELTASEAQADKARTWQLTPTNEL
In words: ELISA; MaxiSorp plates coated with two-fold dilutions of purified passenger domain (top 5 µg/ml, PBS pH 7.4, overnight 4°C); probed 1 h at room temperature with 10 µg/ml purified human C1inh; detected with goat anti-C1inh. The following applies: both partners purified.

B1: purified human C1 esterase inhibitor (natural protein)
chain: NPNATSSSSQDPESLQDRGEGKVATTVISKMLFVEPILEVSSLPTTNSTTNSATKITANTTDEPTTQPTTEPTTQPTIQPTQPTTQLPTDSPTQPTTGSFCPGPVTLCSDLESHSTEAVLGDALVDFSLKLYHAFSAMKKVETNMAFSPFSIASLLTQVLLGAGENTKTNLESILSYPKDFTCVHQALKGFTTKGVTSVSQIFHSPDLAIRDTFVNASRTLYSSSPRVLSNNSDANLELINTWVAKNTNNKISRLLDSLPSDTRLVLLNAIYLSAKWKTTFDPKKTRMEPFHFKNSVIKVPMMNSKKYPVAHFIDQTLKAKVGQLQLSHNLSLVILVPQNLKHRLEDMEQALSPSVFKAIMEKLEMSKFQPTLLTLPRIKVTTSQDMLSIMEKLEFFDFSYDLNLCGLTEDPDLQVSAMQHQTVLELTETGVEAAAASAISVARTLLVFEVQQPFLFVLWDQQHKFPVFMGRVYDPRA
notes: also called C1inh; purified C1inh; source: bought: Advanced Research Technologies (purified human C1inh)
B1: the binding result was “binds”.
